Measurements taken from patent US20240408249A1 (NATIONAL RESEARCH COUNCIL OF CANADA, published 2024).

Tests used:
[1] = molecular target: T1, EGFRvIII (epidermal growth factor receptor variant III) over-expressed on the U87-EGFRvIII glioblastoma cell … (human, UniProt P00533 298-623); assay: radioligand saturation binding on U87-EGFRvIII cells, 2 h on ice, gamma counting, one-site non-linear fit
T1 construct: The assay used cells over-expressing EGFRvIII (whole receptor on cells); EGFRvIII is its in-frame deletion of exons 2-7; also called de2-7EGFR; ΔEGFR
Protocol: (§1) 1. Cell lysate buffer was prepared using PBS with 1% Triton X-100 [0448] 2. Cell binding buffer was prepared using PBS with 0.5% BSA
(§2) This study followed the procedures described below: [0450] 1. Cell preparation: [0451] a. Harvest attached cells: recover sufficient, U87-EGFRvIII cells from T225 flasks using trypsin/EDTA and transfer to a 50 ml culture tube. Dispense a 50 μl sample of resuspended cells into an Eppendorf micro-tube and dilute with 50 μl of trypan blue. Fill a hemocytometer (10 μl) chamber and count the number of cells present. [0452] i. Count cells in four quadrants of the counting area. [0453] ii. Calculate cells/mL: count/4 quadrants×dilution factor×10⁴=cells/mL. [0454] b. Resuspend cells in medium to a final concentration of 3×10⁵ cells/ml. [0455] c. Plate 3×10⁵/1 mL U87-EGFRvIII into designated well of the 24-well plates and gently tap to evenly distribute cells (total 6 plates prepared-4 U87-EGFRvIII, 2 blanks) [0456] d. Incubate plates overnight at 37° C. and 5% CO₂. [0457] 2. Binding assay: [0458] Blocking agent was prepared as follows: 4500 μl as concentration of 4 μM; Final concentration of blocker 2 μM. [0459] For Conjugate A [0460] stock=7.58 mg/mL [0461] mg/ml=52.64 μM, add 342 μl [0462] Binding buffer: 4158 μl [0463] For Conjugate B [0464] stock=6.7 mg/mL [0465] mg/ml=46.53 μM, add 387 μl [0466] Binding buffer: 4113 μl [0467] a. Remove medium from two plates [0468] b. […]

[2] = molecular target: T1, EGFRvIII (epidermal growth factor …); assay: saturation binding of the 177Lu-labelled conjugate on U87-EGFRvIII cells, 2 h on ice, gamma counting; specific binding curve
Protocol: as §1, §2

Row | Kd [1] [nM] | EC50 (read off the curve) [2] [nM] | Binder
1 | 6.78 |  | Conjugate A ([177Lu]-Compound C-anti-EGFRvIII conjugate prepared from EGFRvIII antibody hH2-hL3) (antibody, V domains shown, [177Lu]-Compound C (DOTA chelate with PEG3 linker) conjugated to the antibody; attachment residues not stated; typical chelate to antibody ratios (CARs) of 3-4, Radioimmunoconjugate as tested; also called [177Lu]-DOTA-anti-EGFRvIII; humanized variant of anti-EGFRvIII antibody 4E11) VH: QVQLQESGPGLVKPSQTLSLTCTVSGYSITSDYAWNWIRQPPGKGLEWIGYIGYNGRTSYNPSLKSRVTISRDTSKNQFSLKLSSVTAADTAVYYCARLGRGFAYWGQGTLVTVSS VL: DIQMTQSPSSLSASVGDRVTITCHASQGINSNIGWLQQKPGKAFKGLIYHGTNLEDGVPSRFSGSGSGTDYTLTISSLQPEDFATYYCVQYAQFPYTFGQGTKLEIKR
2 | 2.75 | ~3 | Conjugate B ([177Lu]-Compound C-anti-EGFRvIII conjugate prepared from EGFRvIII antibody hH3-hL1) (antibody, V domains shown, [177Lu]-Compound C (DOTA chelate with PEG3 linker) conjugated to the antibody; attachment residues not stated; typical chelate to antibody ratios (CARs) of 3-4, Radioimmunoconjugate as tested; also called [177Lu]-DOTA-anti-EGFRvIII; humanized variant of anti-EGFRvIII antibody 4E11) VH: QVQLQESGPGLVKPSQTLSLTCTVSGYSITSDYAWNWIRQPPGKGLEWMGYIGYNGRTSYNPSLKSRITISRDTSKNQFSLKLSSVTAADTAVYYCARLGRGFAYWGQGTLVTVSS VL: DIQMTQSPSSLSASVGDRVTITCHASQGINSNIGWYQQKPGKAPKLLIYHGTNLEDGVPSRFSGSGSGTDYTLTISSLQPEDFATYYCVQYAQFPYTFGQGTKLEIKR
